Where two headings read alike, the source gives them in different places. Starred links: 1 amine or outer side, 2 acyl side, 3 side chain; linkers in the order of their positions; H or OH if unused. Positions of bridges follow the written chain, without caps; N, C: chain ends. Non-standard residues stand in square brackets, D forms with d. *: point of attachment. azidopropyl = N-terminal modification AzPro, [N-]=[N+]=NCCC*; TATB = O=C(C[*:1])N1CN(C(=O)C[*:2])CN(C(=O)C[*:3])C1; oligonucleotide 1590463 = not defined here; Lys(N3) = [N-]=[N+]=NCCCC[C@H](N)C(=O)O; Hyp = O=C(O)[C@@H]1C[C@@H](O)CN1; Aze = O=C(O)[C@@H]1CCN1
How the values were obtained:
[1] = molecular target: T1, hCD71-Nluc fusion protein (human, UniProt P02786 1-760); test: nanoBRET saturation binding, HEK293 hCD71-Nluc membranes, single site fit
T1 construct: whole, on cells; Used as crude membrane fractions of HEK293 cells stably expressing hCD71-Nluc; also called human transferrin receptor, CD71, fused to NanoLuc; not shown: NanoLuc (ProMega) luciferase joined through its N-terminal Val
T1 sequence (P02786 other isoform, or with tags, fused parts or gaps): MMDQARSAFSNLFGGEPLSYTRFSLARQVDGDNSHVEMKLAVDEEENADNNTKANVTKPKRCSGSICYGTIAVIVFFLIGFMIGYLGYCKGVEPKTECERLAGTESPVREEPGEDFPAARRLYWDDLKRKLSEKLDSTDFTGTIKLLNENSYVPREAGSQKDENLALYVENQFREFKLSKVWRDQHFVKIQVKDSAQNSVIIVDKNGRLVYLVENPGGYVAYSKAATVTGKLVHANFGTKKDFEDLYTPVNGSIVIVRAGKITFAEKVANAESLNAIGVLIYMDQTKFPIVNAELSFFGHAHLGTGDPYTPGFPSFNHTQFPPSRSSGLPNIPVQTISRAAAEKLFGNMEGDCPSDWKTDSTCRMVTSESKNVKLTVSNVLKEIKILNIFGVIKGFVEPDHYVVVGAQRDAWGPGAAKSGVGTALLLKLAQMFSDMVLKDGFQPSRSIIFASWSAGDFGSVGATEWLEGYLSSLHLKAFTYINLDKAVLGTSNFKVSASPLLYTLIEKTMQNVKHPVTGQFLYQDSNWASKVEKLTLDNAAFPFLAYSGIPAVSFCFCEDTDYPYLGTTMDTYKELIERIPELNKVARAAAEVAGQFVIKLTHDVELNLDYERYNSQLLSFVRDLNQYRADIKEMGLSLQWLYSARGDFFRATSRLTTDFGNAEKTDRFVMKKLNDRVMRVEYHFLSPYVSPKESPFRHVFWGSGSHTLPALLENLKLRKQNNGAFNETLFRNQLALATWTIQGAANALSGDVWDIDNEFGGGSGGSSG

[2] = molecular target: T1, hCD71-Nluc fusion protein; test: nanoBRET competition, tracer BCY17871-1598988 60 nM, HEK293 hCD71-Nluc membranes
Protocol: (§1) The mixtures were incubated for 3 hours at room temperature to reach equilibrium. To initiate BRET, 12.4 μL of 100 μM of the Nluc substrate furimazine was added to each well, and the mixtures were incubated for 5-30 minutes. The assay plate was read on a Promega GlowMax Discover plate reader at wavelengths of 450 nm and 600 nm, and the ratio of emissions at wavelengths 450/600 were used to yield % BRET efficiency. Data was subjected to non-linear regression, then fitted to a single site binding hyperbolic function.
(§2) In order to evaluate modified oligonucleotides conjugated to CD71 bicycle ligands and RNAi compounds conjugated to CD71 bicycle ligands, the assay was modified as follows. […] Modified oligonucleotides were conjugated to the bicycle ligands through a SPAAC reaction These were then added at a range of concentrations in triplicate assays points, and the mixtures were incubated for 3 hours at room temperature. BRET was initiated with the addition of furimazine and the assay was completed as described above.

CD71 = molecular target: T2, CD71 (Homo sapiens (Human), UniProt P02786 89-760); test: SPR Biacore X100, conjugate duplexed to biotin-DNA on streptavidin chip, CD71 injected 6.25-100 nM, 1:1 fit
T2 construct: also called transferrin receptor; TfR1
T2 sequence (P02786 89-760 limits assumed, form in doubt): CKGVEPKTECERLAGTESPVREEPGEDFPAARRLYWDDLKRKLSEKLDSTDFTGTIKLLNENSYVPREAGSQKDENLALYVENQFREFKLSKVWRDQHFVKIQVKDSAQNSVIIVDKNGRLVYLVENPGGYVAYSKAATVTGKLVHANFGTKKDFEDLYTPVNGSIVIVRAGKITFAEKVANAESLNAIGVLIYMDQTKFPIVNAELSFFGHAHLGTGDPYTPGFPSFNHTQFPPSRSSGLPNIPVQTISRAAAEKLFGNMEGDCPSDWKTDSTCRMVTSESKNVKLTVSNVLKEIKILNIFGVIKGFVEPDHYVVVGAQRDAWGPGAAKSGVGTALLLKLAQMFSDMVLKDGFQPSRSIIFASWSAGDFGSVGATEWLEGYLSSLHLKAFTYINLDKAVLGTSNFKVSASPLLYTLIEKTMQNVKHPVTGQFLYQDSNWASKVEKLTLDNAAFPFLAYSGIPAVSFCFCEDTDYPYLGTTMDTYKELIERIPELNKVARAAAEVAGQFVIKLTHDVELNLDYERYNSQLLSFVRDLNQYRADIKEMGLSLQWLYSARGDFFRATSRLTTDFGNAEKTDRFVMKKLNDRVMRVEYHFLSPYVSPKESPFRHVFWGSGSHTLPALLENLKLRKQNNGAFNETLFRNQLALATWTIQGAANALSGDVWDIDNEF
Protocol: The binding affinity for each of the following modified oligonucleotides conjugated to CD71 bicycle ligands was tested on a Biacore X100 surface plasmon resonance (SPR) instrument. 200 units of modified oligonucleotides conjugated to CD71 bicycle ligand were immobilized on a streptavidin chip by injecting a 20 nM solution of 5′-Biotin-labeled DNA (5′-Biotin-TEG-DNA complement to modified oligonucleotide) duplexed with modified oligonucleotides conjugated to CD71 bicycle ligand in HBS—P (10 mM HEPES, pH 7.4, 150 mM NaCl, 0.0005% Surfactant P20) running buffer. […] Kinetic and equilibrium binding analysis was performed using Biacore X100 Evaluation Software, applying 1:1 binding fit.

[3] = molecular target: T1, hCD71-Nluc fusion protein; test: nanoBRET competition, tracer BCY17871-1598988 60 nM, HEK293 hCD71-Nluc membranes; remark: listed apart in the source
Protocol: as §1, §2

[4] = molecular target: T1, hCD71-Nluc fusion protein; test: as above; remark: listed apart in the source
Protocol: as §1, §2

[5] = molecular target: T1, hCD71-Nluc fusion protein; test: as above; remark: listed apart in the source
Protocol: as §1, §2

B1: BCY17871-1598988 (peptide)
peptide: NWNCSPDAHLGCISYCX
modifications: as printed NWNCSPDAHLGCISYC[K(N3)]: N-terminal acetyl; C-terminal amide; three Cys bound to TATB scaffold; [K(N3)] 6-azido lysine at 17 joined by SPAAC to BCN on oligonucleotide 1598988
notes: also called tracer compound
Question: B1 was tested. Which Kd [1] did it give?
Answer: 57 to 58 nM

B2: 1590463-BCY17874 (peptide)
peptide: {oligonucleotide 1590463-BCN linker-azidopropyl}-CSPDAHLGCISYCEPW-NH2
modifications: linker 1-9-13 via TATB; reading uncertain
notes: also called Compound No. 1590463 conjugated to BCY17874
Question: For B2, which Ki [2] is on record?
Answer: 10 nM

Question: And the Kd (CD71)?
Answer: 32 nM

B3: 1590463-BCY17876 (peptide)
peptide: {oligonucleotide 1590463-BCN linker-azidopropyl}-CP[Hyp]DAYLGCISYC-NH2
modifications: linker 1-9-13 via TATB; reading uncertain; also: printed as CP[HyP]DAYLGCISYC
notes: also called Compound No. 1590463 conjugated to BCY17876
Question: Which results are given for B3?
Answer: Ki [2]: 29 nM; Kd (CD71): 95.4 nM

B4: 1590463-BCY17877 (peptide)
peptide: CSXDAHLGCISYCX
modifications: not fully specified; as printed CS[HyP]DAHLGCISYC[K(N3)]: N-terminal acetyl; C-terminal amide; three Cys bound to TATB scaffold; [HyP] 4-trans-hydroxy-L-proline at 3; [K(N3)] 6-azido lysine at 14 joined via BCN linker to oligonucleotide 1590463
notes: also called Compound No. 1590463 conjugated to BCY17877
Question: With B4 as the binder, how does the Ki [2] read?
Answer: 18 nM

B5: 1590463-BCY17878 (peptide)
peptide: {oligonucleotide 1590463-BCN linker-azidopropyl}-CS[Hyp]DAHLGCISYC-NH2
modifications: linker 1-9-13 via TATB; reading uncertain; also: printed as CS[HyP]DAHLGCISYC
notes: also called Compound No. 1590463 conjugated to BCY17878
Question: How did the Ki [2] turn out when B5 was run?
Answer: 74 nM

Question: What about the Kd (CD71) of the same binder?
Answer: 126 nM

B6: 1590463-BCY17879 (peptide)
peptide: CSXDAHLGCISYCX
modifications: not fully specified; as printed CS[Aze]DAHLGCISYC[K(N3)]: N-terminal acetyl; C-terminal amide; three Cys bound to TATB scaffold; [Aze] azetidine at 3; [K(N3)] 6-azido lysine at 14 joined via BCN linker to oligonucleotide 1590463
notes: also called Compound No. 1590463 conjugated to BCY17879
Question: For B6, which Ki [2] is on record?
Answer: 25 nM

Question: What about the Kd (CD71) of the same binder?
Answer: 31.2 nM

B7: 1590463-BCY17880 (peptide)
peptide: {oligonucleotide 1590463-BCN linker-azidopropyl}-CS[Aze]DAHLGCISYC-NH2
modifications: linker 1-9-13 via TATB; reading uncertain; also: printed as CiS[Aze]DAHLGCiiISYCiii
notes: also called Compound No. 1590463 conjugated to BCY17880
Question: With B7 as the binder, how does the Ki [2] read?
Answer: 102 nM

Question: And the Kd (CD71)?
Answer: 8.2 nM

B8: 1590463-BCY17882 (peptide)
peptide: NXNCSPDAHLGCISYCX
modifications: not fully specified; as printed N[dY]NCSPDAHLGCISYC[K(N3)]: N-terminal acetyl; C-terminal amide; three Cys bound to TATB scaffold; [dY] D-tyrosine at 2; [K(N3)] 6-azido lysine at 17 joined via BCN linker to oligonucleotide 1590463
notes: also called Compound No. 1590463 conjugated to BCY17882
Question: With B8 as the binder, how does the Ki [3] read?
Answer: 3 nM

Question: What about the Ki [4] of the same binder?
Answer: 23 nM

Question: And the Ki [5]?
Answer: 55 nM

B9: 1590463-BCY17890 (peptide)
peptide: CSPDAHLGCISYCEXWX
modifications: not fully specified; as printed CSPDAHLGCISYCE[dP]W[K(N3)]: N-terminal acetyl; C-terminal amide; three Cys bound to TATB scaffold; [dP] D-proline at 15; [K(N3)] 6-azido lysine at 17 joined via BCN linker to oligonucleotide 1590463
notes: also called Compound No. 1590463 conjugated to BCY17890
Question: How did the Ki [3] turn out when B9 was run?
Answer: 2 nM

Question: And the Ki [4]?
Answer: 17 nM

Question: And the Ki [5]?
Answer: 20 nM

B10: 1590463-BCY17892 (peptide)
peptide: CSPDAHLGCISYCEXWX
modifications: not fully specified; as printed CSPDAHLGCISYCE[Aze]W[K(N3)]: N-terminal acetyl; C-terminal amide; three Cys bound to TATB scaffold; [Aze] azetidine at 15; [K(N3)] 6-azido lysine at 17 joined via BCN linker to oligonucleotide 1590463
notes: also called Compound No. 1590463 conjugated to BCY17892
Question: What does the source list for B10?
Answer: Ki [3]: 1 nM; Ki [4]: 11 nM; Ki [5]: 11 nM

B11: 1590463-BCY17894 (peptide)
peptide: CSPDAHLGCISYCEXWX
modifications: not fully specified; as printed CSPDAHLGCISYCE[Pip]W[K(N3)]: N-terminal acetyl; C-terminal amide; three Cys bound to TATB scaffold; [Pip] pipecolic acid at 15; [K(N3)] 6-azido lysine at 17 joined via BCN linker to oligonucleotide 1590463
notes: also called Compound No. 1590463 conjugated to BCY17894
Question: With B11 as the binder, how does the Ki [3] read?
Answer: 1 nM

Question: What about the Ki [4] of the same binder?
Answer: 8 nM

Question: What about the Ki [5] of the same binder?
Answer: 10 nM

B12: 1590463-BCY17896 (peptide)
peptide: CPXDAYLGCXSYCX
modifications: not fully specified; as printed CP[HyP]DAYLGC[tBuGly]SYC[K(N3)]: N-terminal acetyl; C-terminal amide; three Cys bound to TATB scaffold; [HyP] 4-trans-hydroxy-L-proline at 3; [tBuGly] t-butyl glycine at 10; [K(N3)] 6-azido lysine at 14 joined via BCN linker to oligonucleotide 1590463
notes: also called Compound No. 1590463 conjugated to BCY17896
Question: Which results are given for B12?
Answer: Ki [3]: 1 nM; Ki [4]: 2 nM; Ki [5]: 2 nM

B13: 1590463-BCY17899 (peptide)
peptide: NWNCPXDAYLGCXSYCX
modifications: not fully specified; as printed NWNCP[HyP]DAYLGC[tBuGly]SYC[K(N3)]: N-terminal acetyl; C-terminal amide; three Cys bound to TATB scaffold; [HyP] 4-trans-hydroxy-L-proline at 6; [tBuGly] t-butyl glycine at 13; [K(N3)] 6-azido lysine at 17 joined via BCN linker to oligonucleotide 1590463
notes: also called Compound No. 1590463 conjugated to BCY17899
Question: What does the source list for B13?
Answer: Ki [3]: 1 nM; Ki [4]: 4 nM; Ki [5]: 4 nM

B14: 1590463-BCY17901 (peptide)
peptide: CPXDAYLGCXSYCEPWX
modifications: not fully specified; as printed CP[HyP]DAYLGC[tBuGly]SYCEPW[K(N3)]: N-terminal acetyl; C-terminal amide; three Cys bound to TATB scaffold; [HyP] 4-trans-hydroxy-L-proline at 3; [tBuGly] t-butyl glycine at 10; [K(N3)] 6-azido lysine at 17 joined via BCN linker to oligonucleotide 1590463
notes: also called Compound 1590463-BCY17901; Compound No. 1666846
Question: How did the Ki [3] turn out when B14 was run?
Answer: 0.3 nM

Question: And the Ki [4]?
Answer: 1 nM

Question: And the Ki [5]?
Answer: 1 nM

B15: 1590463-BCY17903 (peptide)
peptide: Ac-C[Lys(N3)]PDAHLGCISYC-NH2
modifications: linker 1-9-13 via TATB; not fully specified (residue 2); printed as C[K(N3)]PDAHLGCISYC; also: azide of K(N3) in loop clicked via BCN linker to oligonucleotide 1590463
notes: also called Compound No. 1590463 conjugated to BCY17903
Question: Which Ki [3] does the source give for B15 here?
Answer: 24 nM

Question: And the Ki [4]?
Answer: 125 nM

B16: 1590463-BCY17904 (peptide)
peptide: Ac-CS[Lys(N3)]DAHLGCISYC-NH2
modifications: linker 1-9-13 via TATB; not fully specified (residue 3); printed as CS[K(N3)]DAHLGCISYC; also: azide of K(N3) in loop clicked via BCN linker to oligonucleotide 1590463
notes: also called Compound No. 1590463 conjugated to BCY17904
Question: B16 was tested. Which Ki [3] did it give?
Answer: 5 nM

Question: And the Ki [4]?
Answer: 31 nM

Question: What about the Ki [5] of the same binder?
Answer: 60 nM

B17: 1590463-BCY17905 (peptide)
peptide: Ac-CSPD[Lys(N3)]HLGCISYC-NH2
modifications: linker 1-9-13 via TATB; not fully specified (residue 5); printed as CSPD[K(N3)]HLGCISYC; also: azide of K(N3) in loop clicked via BCN linker to oligonucleotide 1590463
notes: also called Compound No. 1590463 conjugated to BCY17905
Question: With B17 as the binder, how does the Ki [3] read?
Answer: 16 nM

Question: And the Ki [4]?
Answer: 148 nM
